Reference: PMC2787996 (Biochemical and biophysical research communications, 2009)

Biological target: T1, dDis3-FLAG (Drosophila melanogaster, UniProt Q9VC93 1-982)
T1 sequence (looked up): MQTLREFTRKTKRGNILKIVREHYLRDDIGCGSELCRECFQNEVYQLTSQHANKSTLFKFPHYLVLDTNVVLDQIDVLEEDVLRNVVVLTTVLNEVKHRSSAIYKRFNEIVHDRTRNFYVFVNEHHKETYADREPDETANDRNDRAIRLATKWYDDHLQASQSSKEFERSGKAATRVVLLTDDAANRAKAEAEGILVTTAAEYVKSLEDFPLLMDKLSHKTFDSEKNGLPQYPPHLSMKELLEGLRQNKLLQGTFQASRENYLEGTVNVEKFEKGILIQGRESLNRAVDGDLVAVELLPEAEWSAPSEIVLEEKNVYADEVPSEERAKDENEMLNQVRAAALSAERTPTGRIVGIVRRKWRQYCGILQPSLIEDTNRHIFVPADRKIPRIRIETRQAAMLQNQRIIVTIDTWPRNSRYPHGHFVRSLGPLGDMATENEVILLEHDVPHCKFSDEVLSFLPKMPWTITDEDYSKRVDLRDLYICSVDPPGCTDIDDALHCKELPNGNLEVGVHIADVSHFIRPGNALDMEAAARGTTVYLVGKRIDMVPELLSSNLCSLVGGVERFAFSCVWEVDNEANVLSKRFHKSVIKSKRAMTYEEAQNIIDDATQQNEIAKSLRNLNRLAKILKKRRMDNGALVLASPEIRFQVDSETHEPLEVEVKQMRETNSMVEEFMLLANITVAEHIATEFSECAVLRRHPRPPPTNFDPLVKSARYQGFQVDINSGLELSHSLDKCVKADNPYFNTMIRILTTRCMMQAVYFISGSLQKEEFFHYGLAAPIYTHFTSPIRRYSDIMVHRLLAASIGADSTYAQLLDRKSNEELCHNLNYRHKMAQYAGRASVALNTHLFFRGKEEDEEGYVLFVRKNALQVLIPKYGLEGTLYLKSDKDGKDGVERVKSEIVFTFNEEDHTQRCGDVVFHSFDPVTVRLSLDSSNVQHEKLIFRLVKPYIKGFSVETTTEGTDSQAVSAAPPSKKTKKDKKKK
Assay: co-IP

fold reduction in recovery (0.2 M Mg2+ against 0.01 M Mg2+): ~2 fold
B1: dRrp6 (natural protein, UniProt Q9VFF3 1-900, looked up)
chain: MPRTPKRVHQEAKEESAQADQPPKKSASEDVEAFTNKGFKNAIAATKAANAFPQGTARALYLSYPGYARVMEDLTQRVVALIGNVLHSKDIKGDIKKRQPEEQFEMVQECNDVLFERITTNLDIKGGLRRNTQQVVEAQVDVMSSSTSIEPAVASPQTQGTPKAGSWNRTTGTPQRSMVSARLFTAKNIVRPQTQFREPVDNSAQNPFVPRLKEKPNSLKPLALLPEYDDAGNVQSYLHPYEFELLKFQPPEEQFQKQKPVLPALMAETELMVVDTVEKLKQALEELRQAPQIAIDVEHHSYRTFMGITCLVQMSTRSKDYIFDTLILRDDMHILNLVLTDPKKLKILHGADLDIEWLQRDLSLYIVNMFDTHRAAKALNMARLSLAYLLKHYLDLDVDKSLQLADWRMRPLPQQLVDYARQDTHFLIYVYGRMTNDLLQQHAEPGLLGSVYQQSTDVCKKRYNKPHIGPESHLDLVRKTKRSFDNRQLYALRGIFEWRDATARSEDESYGYVLPNHMMLQIAESLPREMQGILACCNPIPPLVRQQLHTLHQIVLKARDQPLVKPILEAHSSTQAALPPSTKDFSSKLYCPHDFSQLEEIRDDLPTLLKRNSTTGKLEVPNKEEVAKVDPTLAAPAMALFEKQSKPTQEEEQRWAHLRKESQTMRMPYKRYLAILPLMVQLKADQLARERSELQKRQLCPAAPTVEQNIKLEAHAIGKEDDDMYSVPLKEQLKRKHPQANVKTDPEQQPTASKRPRKDENSQTKPPVKIEPVEKVQQALGESDDEVVEVPIERQATEPPKPSPAQNNRKQKKNQFQRGFKAKNRGNHPQSSSQQVPQHKGTGNFDYKNVDFRQFKGGAQRARGTEIKQQIRGKNRPNNRNNKQFNKLFTFSNVRKEGKK
